The text below walks through data of publication PMC7473711, “Characterization of the different oligomeric states of the DAN family antagonists SOSTDC1 and SOST” (Biochemical Journal, 2020).

Data set [1] deals with the molecule itself. The data set is described as follows: SEC; analytical SEC, Superdex S75 HR 10/300, room temperature, 0.5 ml/min, 20 mM HEPES, 1 M NaCl, pH 7.5; 100-150 µg protein loaded; self-association.
Data set [2] deals with the molecule itself. As to the kind of experiment: SEC; protein that was monomeric at low pH (pH 3.0) neutralised to pH 7.5 and run again on SEC.

B1: chicken SOSTDC1 (Sclerostin domain containing protein 1), residues 23-206 (natural protein, UniProt Q6VYA3 23-206, looked up)
chain: AFKNDATEILYSHVVKPAPASPSSNSTLNQARNGGRHYAGTGSDRNNRVQVGCRELRSTKYISDGQCTSINPLKELVCAGECLPLPLLPNWIGGGYGTKYWSRRSSQEWRCVNDKTRTQRIQLQCQDGSIRTYKITVVTACKCKRYTRQHNESSHNFEGTSQAKPVQHHKERKRASKSSKHSTS
notes: SOSTDC1, chicken, amino acid residues 23-206, cloned into pET21a from pCS2-Flag-cSOSTDC1; 20.7 kDa; The vector is pET21a; also called cSOSTDC1; Wise
In the case of B1, the “stoichiometry N” value in data set [1] is 2.

B2: human SOSTDC1 (Sclerostin domain containing protein 1) (natural protein, UniProt Q6X4U4 24-206, looked up)
chain: FKNDATEILYSHVVKPVPAHPSSNSTLNQARNGGRHFSNTGLDRNTRVQVGCRELRSTKYISDGQCTSISPLKELVCAGECLPLPVLPNWIGGGYGTKYWSRRSSQEWRCVNDKTRTQRIQLQCQDGSTRTYKITVVTACKCKRYTRQHNESSHNFESMSPAKPVQHHRERKRASKSSKHSMS
modifications: native glycosylation
notes: signal peptide in the construct; SOSTDC1, human, full-length gene made by gene synthesis and codon optimised (GenScript), in pcDNA4 (pCDNA4-hSOSTDC1-PP-Myc-His); secreted into conditioned medium; after cleavage the residues LEVLFQ probably stay on the C-terminus (surmised); The secreted protein probably lacks its signal peptide (surmised); also called hSOSTDC1; Wise; source: Expi293F, transiently …
On to B2, for which the “stoichiometry N” value in data set [1] came to 2.

B3: Gremlin2 (natural protein)
chain: RKNRPAGAIPSPYKDGSSNNSERWHHQIKEVLASSQEALVVTERKYLKSDWCKTQPLRQTVSEEGCRSRTILNRFCYGQCNSFYIPRHVKKEEDSFQSCAFCKPQRVTSVIVELECPGLDPPFRIKKIQKVKHCRCMSVNLSDSDKQ
notes: Gremlin2 (Grem2); also called Grem2
With B3, in data set [2], the “stoichiometry N” value is 2.
